Earlier results, collected in publication PMC9558124.

Biological target: PEX19 (Homo sapiens) (UniProt P40855)
Chain of UniProt P40855 (P40855 2-296): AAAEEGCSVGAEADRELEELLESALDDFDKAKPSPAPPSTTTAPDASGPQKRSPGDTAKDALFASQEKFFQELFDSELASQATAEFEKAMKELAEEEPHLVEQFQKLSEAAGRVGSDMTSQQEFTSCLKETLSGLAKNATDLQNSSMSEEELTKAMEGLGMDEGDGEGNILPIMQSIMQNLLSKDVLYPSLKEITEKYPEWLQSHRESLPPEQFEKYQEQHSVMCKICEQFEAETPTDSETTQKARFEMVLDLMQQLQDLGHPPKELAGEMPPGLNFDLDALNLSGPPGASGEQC

PEX3 CTD (from UniProt P56589)
Kd: 0.01 µM
